Experimental data reported in patent publication US20240239894A1, “THERAPEUTIC BINDING MOLECULES” (MedImmune Limited, priority 2020, published 2024).

How the values were obtained:
HT29 hB7H4 clone 44 = assay: E02-GL MESF on cell line; type: cell-based, human
[1] = test system: hB7-H4 expressing HT29 cells; assay: Flow cytometry binding; type: cell-based, human; details: 31, 156 and 78 ng/ml; compared with 1D11
Procedure: (§1) Cells were detached from tissue culture flasks by accutase (Gibco, Paisley, UK), pelleted by centrifugation, and resuspended in ice cold DPBS (Gibco, Paisley, UK). Viable cells were counted by trypan blue exclusion using a haemocytometer. Cell densities were adjusted to 5×10^6 cells/mL in DPBS. 100 μL of the cell suspension (5×10^5 cells) was added to 96-well V-bottomed plates and placed on ice. Then, the cells were incubated with Live/Dead fixable violet stain (ThermoFisher Scientific, Loughborough, UK) for 20 minutes on ice. Following a wash with flow cytometry buffer (eBiosciences, Hatfield, UK), the cells were incubated on ice for 30 minutes in 100 μL flow cytometry buffer alone (unstained control cells) or supplemented with AF647-labelled anti-B7H4 antibodies (e.g. E02-GL or 1D11) or isotype R347 at a concentration ranging from 10 µg/ml to 78 ng/ml. […] FlowJo cytometry analysis software (Treestar, Ashland, OR, USA) was used to quantify antibody binding to cells as follows. Live, single cells were gated based on forwards scatter, side scatter, and Live/Dead violet fluorescence intensity and the AF647 geometric mean fluorescence intensity (MFI) was determined. […]

SK-BR-3 cells = assay: Flow cytometry binding; type: cell-based, human; details: 31, 156 and 78 ng/ml; compared with 1D11
Procedure: as §1

HEK 293 JI hB7H4 pool = assay: E02-GL MESF on cell line; type: cell-based; details: has some negative cells in pool
HT29 hB7H4 clone 26 = assay: E02-GL MESF on cell line; type: cell-based, human
OVCAR4 = assay: E02-GL MESF on cell line; type: cell-based, human
[2] = test system: HT29-huB7-H4 Clone 26 cells; assay: Confocal colocalization with LAMP1 and EEA1; type: cell-based, human; details: 24 hours, 5 μg/mL
Text: Confocal microscopy was used to determine intracellular trafficking of E02-INT by measuring co-localization with the early endosomal marker, Early Endosome Antigen 1 (EEA1) and the lysosomal marker, lysosomal-associated membrane protein 1 (LAMP1).

[3] = test system: B7-H4 heterogeneous HT29 tumours (1:1 expressing and non-expressing); assay: Bystander killing in vivo
Text: B7-H4 heterogeneous tumours were generated by co-implantation of B7-H4 expressing HT29 cell lines with non-expressing HT29 cells (1:1 ratio). […] This is highly advantageous, as the inventors have found B7-H4 to be heterogeneously expressed within tumours.

SKBR-3 cells = assay: Caspase 3/7 activity (IncuCyte); type: cell-based, human
Procedure: SKBR-3 cells were treated with E02-GL-SG3249, SG3199 and Olaparib (control) and monitored for caspase 3/7 activity (e.g. apoptosis) by IncuCyte.

HCC1954 tumour xenograft = assay: gamma H2AX immunohistochemistry in tumour xenograft; type: in vivo; details: up to 10 days following treatment
Procedure: Tumour xenograft models were generated (using HCC1954 cells), and treated with E02-GL-SG3249. “E02-GL” antibody has the CDR/VH sequences (e.g. corresponds to) of ZY0EQD-E02 (“GL” means the antibody has been germlined).
Immunohistochemistry was then performed to determine gamma H2AX (marker of double strand breaks) following treatment.

CTG-0992 = assay: PDX model; type: in vivo; details: CTG-0992, Ovarian; 0.3 mg/kg vs vehicle
Text: (§2) Patient derived xenograft models were generated using cancer cell lines with varying levels of B7-H4 expression, as outlined in Table 16. […] “E02-GL” antibody has the CDR/VH sequences (e.g. corresponds to) of ZY0EQD-E02 (“GL” means the antibody has been germlined).

CTG-1106 = assay: PDX model; type: in vivo; details: CTG-1106, Breast (Triple negative); 0.3 mg/kg vs vehicle
Text: as §2

T272 = assay: PDX model; type: in vivo; details: T272, Breast (HR+); 0.3 mg/kg vs vehicle
Text: as §2

HBCx-10 = assay: PDX model; type: in vivo; details: HBCx-10, Breast (Triple negative); 0.3 mg/kg vs vehicle
Text: as §2

CTG-052 = assay: PDX model; type: in vivo; details: CTG-052, Breast (Triple negative); 0.3 mg/kg vs vehicle
Text: as §2

CTG-012 = assay: PDX model; type: in vivo; details: CTG-012, Breast (Triple negative); 0.3 mg/kg vs vehicle
Text: as §2

T168 = assay: PDX model; type: in vivo; details: T168, Breast (HR+); 0.3 mg/kg vs vehicle
Text: as §2

HBCx-9 = assay: PDX model; type: in vivo; details: HBCx-9, Breast (Triple negative); 0.3 mg/kg vs vehicle
Text: as §2

CTG-1086 = assay: PDX model; type: in vivo; details: CTG-1086, Ovarian; 0.3 mg/kg vs vehicle
Text: as §2

T330 = assay: PDX model; type: in vivo; details: T330, Breast (Triple negative); 0.3 mg/kg vs vehicle
Text: as §2

HBCx-11 = assay: PDX model; type: in vivo; details: HBCx-11, Breast (Triple negative); 0.3 mg/kg vs vehicle
Text: as §2

B1: E02-GL: germlined ZY0EQD-E02, VH SEQ ID NO: 45, VL SEQ ID NO: 34; antibody intermediate of E02-GL-SG3932 (antibody, V domains shown)
VH: QVQLQQWGAGLLKPSETLSLACTVYGGSFSGYYWNWIRQPPGKGLEWIGEINHSGSTSYNPSLKSRVTISVDTSKNQFSLKLSSVTAADTAVYYCARVLYNWNVDSWGQGTLVTVSS
VL: DIQMTQSPSSLSASVGDRVTITCRASQDIRNDVGWYQQKPGKAPKRLIYAASRLQSGVPSRFSGSGSGTEFTLTISSLQPEDFATYYCLQHNSYPRTFGQGTKVEIK
- E02-GL MESF (HT29 hB7H4 clone 44): 147,125 MESF
- binding to B7-H4 expressed on cancer cells [1]: superior binding
- binding to B7-H4 expressed on cancer cells (SK-BR-3 cells): superior binding
- E02-GL MESF (HEK 293 JI hB7H4 pool): 2,481,266 MESF
- E02-GL MESF (HT29 hB7H4 clone 26): 429,398 MESF
- E02-GL MESF (OVCAR4): 261,997 MESF
- intracellular trafficking after internalization [2]: trafficked to the lysosomal compartment

B2: E02-GL-SG3249: clone E02-GL (Maia heavy chain backbone) conjugated to the PBD cytotoxin SG3249 (conjugate)
heavy: QVQLQQWGAGLLKPSETLSLACTVYGGSFSGYYWNWIRQPPGKGLEWIGEINHSGSTSYNPSLKSRVTISVDTSKNQFSLKLSSVTAADTAVYYCARVLYNWNVDSWGQGTLVTVSSASTKGPSVFPLAPSSKSTSGGTAALGCLVKDYFPEPVTVSWNSGALTSGVHTFPAVLQSSGLYSLSSVVTVPSSSLGTQTYICNVNHKPSNTKVDKRVEPKSCDKTHTCPPCPAPELLGGPSCVFLFPPKPKDTLMISRTPEVTCVVVDVSHEDPEVKFNWYVDGVEVHNAKTKPREEQYNSTYRVVSVLTVLHQDWLNGKEYKCKVSNKALPAPIEKTISKAKGQPREPQVYTLPPSREEMTKNQVSLTCLVKGFYPSDIAVEWESNGQPENNYKTTPPVLDSDGSFFLYSKLTVDKSRWQQGNVFSCSVMHEALHNHYTQKSLSLSPGK
light: DIQMTQSPSSLSASVGDRVTITCRASQDIRNDVGWYQQKPGKAPKRLIYAASRLQSGVPSRFSGSGSGTEFTLTISSLQPEDFATYYCLQHNSYPRTFGQGTKVEIKRTVAAPSVFIFPPSDEQLKSGTASVVCLLNNFYPREAKVQWKVDNALQSGNSQESVTEQDSKDSTYSLSSTLTLSKADYEKHKVYACEVTHQGLSSPVTKSFNRGEC
- growth suppression of heterogeneous xenografts [3]: pronounced
- caspase 3/7 activity (SKBR-3 cells): dose dependent increase
- gamma H2AX positive tumour cells (HCC1954 tumour xenograft): Increased numbers of gamma H2AX positive tumour cells
- % Tumour Growth Inhibition (TGI) (CTG-0992): 0%
- % Tumour Growth Inhibition (TGI) (CTG-1106): 30%
- % Tumour Growth Inhibition (TGI) (T272): 30%
- % Tumour Growth Inhibition (TGI) (HBCx-10): 90%
- % Tumour Growth Inhibition (TGI) (CTG-052): 30%
- % Tumour Growth Inhibition (TGI) (CTG-012): 90%
- % Tumour Growth Inhibition (TGI) (T168): 60%
- % Tumour Growth Inhibition (TGI) (HBCx-9): 70%
- % Tumour Growth Inhibition (TGI) (CTG-1086): 20%
- % Tumour Growth Inhibition (TGI) (T330): 70%
- % Tumour Growth Inhibition (TGI) (HBCx-11): 80%
